Substitutions are numbered along the chain they refer to. Numbered stars: 1 amine (or outer) side, 2 acyl side, 3 side chain; on linkers, the order of the positions; unused ones are H or OH. Square brackets hold non-standard residues; d marks the D form. Side chains are listed from the residue outwards. Ends that are not written are not given here. * marks the point of attachment. C20 diacid = O=C(O)CCCCCCCCCCCCCCCCCCC(=O)*; γGlu = O=C(O)[C@H](CCC(=O)[*:2])N[*:1]; AEEA = NCCOCCOCC(=O)O; Aib = CC(C)(N)C(=O)O
B1: Peptide 220 (peptide)
peptide: YXEGTXTSDYSIXLDEKAQXEFIXYLIEGG
modifications: Aib2; αMeF(2F)6; αMeL13; K17((2-[2-(2-Amino-ethoxy)-ethoxy]-acetyl)2-(γGlu)-CO-(CH2)16-CO2H); Aib20; D-Glu24; C-terminal NH2
B2: Peptide 29 (peptide)
peptide: Y[Aib]EGTFTSDYSILLDK([AEEA-AEEA-γGlu-C20 diacid])IAQ[Aib]AFIEYLIEGGPSSGAPPPS-NH2
modifications: N-terminus assumed
SMILES: CC[C@H](C)[C@H](NC(=O)[C@H](CCCCNC(=O)COCCOCCNC(=O)COCCOCCNC(=O)CC[C@H](NC(=O)CCCCCCCCCCCCCCCCCCC(=O)O)C(=O)O)NC(=O)[C@H](CC(=O)O)NC(=O)[C@H](CC(C)C)NC(=O)[C@H](CC(C)C)NC(=O)[C@@H](NC(=O)[C@H](CO)NC(=O)[C@H](Cc1ccc(O)cc1)NC(=O)[C@H](CC(=O)O)NC(=O)[C@H](CO)NC(=O)[C@@H](NC(=O)[C@H](Cc1ccccc1)NC(=O)[C@@H](NC(=O)CNC(=O)[C@H](CCC(=O)O)NC(=O)C(C)(C)NC(=O)[C@@H](N)Cc1ccc(O)cc1)[C@@H](C)O)[C@@H](C)O)[C@@H](C)CC)C(=O)N[C@@H](C)C(=O)N[C@@H](CCC(N)=O)C(=O)NC(C)(C)C(=O)N[C@@H](C)C(=O)N[C@@H](Cc1ccccc1)C(=O)N[C@H](C(=O)N[C@@H](CCC(=O)O)C(=O)N[C@@H](Cc1ccc(O)cc1)C(=O)N[C@@H](CC(C)C)C(=O)N[C@H](C(=O)N[C@@H](CCC(=O)O)C(=O)NCC(=O)NCC(=O)N1CCC[C@H]1C(=O)N[C@@H](CO)C(=O)N[C@@H](CO)C(=O)NCC(=O)N[C@@H](C)C(=O)N1CCC[C@H]1C(=O)N1CCC[C@H]1C(=O)N1CCC[C@H]1C(=O)N[C@@H](CO)C(N)=O)[C@@H](C)CC)[C@@H](C)CC
B3: Peptide 210 (peptide)
peptide: YXEGTXTSDYSIXLDXKAQXEFIXYLIEGGPSSGAPPPS
modifications: Aib2; αMeF(2F)6; αMeL13; Dap16; K17((2-[2-(2-Amino-ethoxy)-ethoxy]-acetyl)2-(γGlu)-CO-(CH2)16-CO2H); Aib20; D-Glu24; C-terminal NH2
B4: Peptide 238 (peptide)
peptide: B3 peptide with Y10L, Y25X
modifications: not fully specified; Aib2; αMeF(2F)6; αMeL13; Orn16; K17((2-[2-(2-Amino-ethoxy)-ethoxy]-acetyl)2-(γGlu)-CO-(CH2)16-CO2H); Aib20; D-Glu24; αMeY25; C-terminal NH2
B5: Peptide 242 (peptide)
peptide: B3 peptide with Y10V, E21A, Y25X
modifications: not fully specified; Aib2; αMeF(2F)6; αMeL13; Orn16; K17((2-[2-(2-Amino-ethoxy)-ethoxy]-acetyl)2-(γGlu)-CO-(CH2)16-CO2H); Aib20; D-Glu24; αMeY25; C-terminal NH2
B6: Peptide 236 (peptide)
peptide: B3 peptide with Y25X
modifications: not fully specified; Aib2; αMeF(2F)6; αMeL13; Orn16; K17((2-[2-(2-Amino-ethoxy)-ethoxy]-acetyl)2-(γGlu)-CO-(CH2)16-CO2H); Aib20; D-Glu24; αMeY25; C-terminal NH2
B7: Peptide 244 (peptide)
peptide: B3 peptide with Y10L, E21A, Y25X
modifications: not fully specified; Aib2; αMeF(2F)6; αMeL13; Orn16; K17((2-[2-(2-Amino-ethoxy)-ethoxy]-acetyl)2-(γGlu)-CO-(CH2)16-CO2H); Aib20; D-Glu24; αMeY25; C-terminal NH2
B8: Peptide 213 (peptide)
peptide: B3 peptide with X16E
modifications: Aib2; αMeF6; αMeL13; K17((2-[2-(2-Amino-ethoxy)-ethoxy]-acetyl)2-(γGlu)-CO-(CH2)16-CO2H); Aib20; D-Glu24; C-terminal NH2
B9: Peptide 214 (peptide)
peptide: B3 peptide with X16E
modifications: Aib2; αMeF(2F)6; αMeL13; K17((2-[2-(2-Amino-ethoxy)-ethoxy]-acetyl)2-CO-(CH2)16-CO2H); Aib20; D-Glu24; C-terminal NH2
B10: Peptide 215 (peptide)
peptide: B3 peptide with X16E
modifications: Aib2; αMeF(2F)6; αMeL13; K17((2-[2-(2-Amino-ethoxy)-ethoxy]-acetyl)2-CO-(CH2)18-CO2H); Aib20; D-Glu24; C-terminal NH2
B11: Peptide 222 (peptide)
peptide: B3 peptide with X16E, Y25X
modifications: Aib2; αMeF(2F)6; αMeL13; K17((2-[2-(2-Amino-ethoxy)-ethoxy]-acetyl)2-(γGlu)-CO-(CH2)18-CO2H); Aib20; D-Glu24; αMeY25; C-terminal NH2
B12: Peptide 227 (peptide)
peptide: B3 peptide with X16E
modifications: Aib2; αMeF6; αMeL13; K17((2-[2-(2-Amino-ethoxy)-ethoxy]-acetyl)2-(γGlu)-CO-(CH2)18-CO2H); Aib20; D-Glu24; C-terminal NH2
B13: Peptide 211 (peptide)
peptide: B3 peptide with X16K
modifications: Aib2; αMeF(2F)6; αMeL13; K17((2-[2-(2-Amino-ethoxy)-ethoxy]-acetyl)-(γGlu)-(2-[2-(2-Amino-ethoxy)-ethoxy]-acetyl)-CO-(CH2)18-CO2H); Aib20; D-Glu24; C-terminal NH2
B14: Peptide 221 (peptide)
peptide: B3 peptide with X16E
modifications: Aib2; αMeF(2F)6; αMeL13; K17((2-[2-(2-Amino-ethoxy)-ethoxy]-acetyl)2-(γGlu)-CO-(CH2)16-CO2H); Aib20; D-Glu24; C-terminal NH2
B15: Peptide 223 (peptide)
peptide: B3 peptide with X16E, X24E, Y25X
modifications: Aib2; αMeF(2F)6; αMeL13; K17((2-[2-(2-Amino-ethoxy)-ethoxy]-acetyl)2-(γGlu)-CO-(CH2)18-CO2H); Aib20; αMeY25; C-terminal NH2
B16: Peptide 212 (peptide)
peptide: B3 peptide with X16K
modifications: Aib2; αMeF(2F)6; αMeL13; K17((2-[2-(2-Amino-ethoxy)-ethoxy]-acetyl)2-(γGlu)-CO-(CH2)18-CO2H); Aib20; D-Glu24; C-terminal NH2
B17: Peptide 224 (peptide)
peptide: B3 peptide with X16E
modifications: Aib2; αMeF(2F)6; Aib13; K17((2-[2-(2-Amino-ethoxy)-ethoxy]-acetyl)2-(γGlu)-CO-(CH2)18-CO2H); Aib20; D-Glu24; C-terminal NH2
B18: Peptide 217 (peptide)
peptide: B3 peptide
modifications: Aib2; αMeF(2F)6; αMeL13; Dab16; K17((2-[2-(2-Amino-ethoxy)-ethoxy]-acetyl)2-(γGlu)-CO-(CH2)18-CO2H); Aib20; D-Glu24; C-terminal NH2
B19: Peptide 230 (peptide)
peptide: B3 peptide with X16H
modifications: Aib2; αMeF(2F)6; αMeL13; K17((2-[2-(2-Amino-ethoxy)-ethoxy]-acetyl)2-(γGlu)-CO-(CH2)18-CO2H); Aib20; D-Glu24; C-terminal NH2
B20: Peptide 239 (peptide)
peptide: B3 peptide with Y10X, E21T, Y25X
modifications: not fully specified; Aib2; αMeF(2F)6; 4Pal10; αMeL13; Orn16; K17((2-[2-(2-Amino-ethoxy)-ethoxy]-acetyl)2-(γGlu)-CO-(CH2)16-CO2H); Aib20; D-Glu24; αMeY25; C-terminal NH2
B21: Peptide 216 (peptide)
peptide: B3 peptide with X16E
modifications: Aib2; αMeF(2F)6; αMeL13; K17((2-[2-(2-Amino-ethoxy)-ethoxy]-acetyl)2-(εK)-CO-(CH2)18-CO2H); Aib20; D-Glu24; C-terminal NH2
B22: Peptide 218 (peptide)
peptide: B3 peptide
modifications: Aib2; αMeF(2F)6; αMeL13; Dap16; K17((2-[2-(2-Amino-ethoxy)-ethoxy]-acetyl)2-(γGlu)-CO-(CH2)18-CO2H); Aib20; D-Glu24; C-terminal NH2
B23: Peptide 246 (peptide)
peptide: B3 peptide with Y10A, E21A, Y25X
modifications: not fully specified; Aib2; αMeF(2F)6; αMeL13; Orn16; K17((2-[2-(2-Amino-ethoxy)-ethoxy]-acetyl)2-(γGlu)-CO-(CH2)16-CO2H); Aib20; D-Glu24; αMeY25; C-terminal NH2
B24: Peptide 233 (peptide)
peptide: B3 peptide with Y10X
modifications: not fully specified; Aib2; αMeF(2F)6; 4Pal10; αMeL13; Dab16; K17((2-[2-(2-Amino-ethoxy)-ethoxy]-acetyl)2-(γGlu)-CO-(CH2)16-CO2H); Aib20; D-Glu24; C-terminal NH2
B25: Peptide 241 (peptide)
peptide: B3 peptide with Y10V, E21T, Y25X
modifications: not fully specified; Aib2; αMeF(2F)6; αMeL13; Orn16; K17((2-[2-(2-Amino-ethoxy)-ethoxy]-acetyl)2-(γGlu)-CO-(CH2)16-CO2H); Aib20; D-Glu24; αMeY25; C-terminal NH2
B26: Peptide 243 (peptide)
peptide: B3 peptide with Y10L, E21T, Y25X
modifications: not fully specified; Aib2; αMeF(2F)6; αMeL13; Orn16; K17((2-[2-(2-Amino-ethoxy)-ethoxy]-acetyl)2-(γGlu)-CO-(CH2)16-CO2H); Aib20; D-Glu24; αMeY25; C-terminal NH2
B27: Peptide 26 (peptide)
peptide: Y[Aib]EGTFTSDYSIK([AEEA-AEEA-γGlu-C20 diacid])LDKIAQ[Aib]AFIEYLIEGGPSSGAPPPS-NH2
modifications: N-terminus assumed
SMILES: CC[C@H](C)[C@H](NC(=O)[C@H](CCCCN)NC(=O)[C@H](CC(=O)O)NC(=O)[C@H](CC(C)C)NC(=O)[C@H](CCCCNC(=O)COCCOCCNC(=O)COCCOCCNC(=O)CC[C@H](NC(=O)CCCCCCCCCCCCCCCCCCC(=O)O)C(=O)O)NC(=O)[C@@H](NC(=O)[C@H](CO)NC(=O)[C@H](Cc1ccc(O)cc1)NC(=O)[C@H](CC(=O)O)NC(=O)[C@H](CO)NC(=O)[C@@H](NC(=O)[C@H](Cc1ccccc1)NC(=O)[C@@H](NC(=O)CNC(=O)[C@H](CCC(=O)O)NC(=O)C(C)(C)NC(=O)[C@@H](N)Cc1ccc(O)cc1)[C@@H](C)O)[C@@H](C)O)[C@@H](C)CC)C(=O)N[C@@H](C)C(=O)N[C@@H](CCC(N)=O)C(=O)NC(C)(C)C(=O)N[C@@H](C)C(=O)N[C@@H](Cc1ccccc1)C(=O)N[C@H](C(=O)N[C@@H](CCC(=O)O)C(=O)N[C@@H](Cc1ccc(O)cc1)C(=O)N[C@@H](CC(C)C)C(=O)N[C@H](C(=O)N[C@@H](CCC(=O)O)C(=O)NCC(=O)NCC(=O)N1CCC[C@H]1C(=O)N[C@@H](CO)C(=O)N[C@@H](CO)C(=O)NCC(=O)N[C@@H](C)C(=O)N1CCC[C@H]1C(=O)N1CCC[C@H]1C(=O)N1CCC[C@H]1C(=O)N[C@@H](CO)C(N)=O)[C@@H](C)CC)[C@@H](C)CC
B28: Peptide 219 (peptide)
peptide: YXEGTXTSDYSIXLDEKAQXEFIXYLIEGGPSSG
modifications: Aib2; αMeF(2F)6; αMeL13; K17((2-[2-(2-Amino-ethoxy)-ethoxy]-acetyl)2-(γGlu)-CO-(CH2)16-CO2H); Aib20; D-Glu24; C-terminal NH2
B29: Peptide 228 (peptide)
peptide: B28 peptide with E16K
modifications: Aib2; αMeF6; αMeL13; K17((2-[2-(2-Amino-ethoxy)-ethoxy]-acetyl)2-(γGlu)-CO-(CH2)18-CO2H); Aib20; D-Glu24; C-terminal NH2
B30: Peptide 25 (peptide)
peptide: Y[Aib]EGTFTSDYSK([AEEA-AEEA-γGlu-C20 diacid])LLDKIAQ[Aib]AFIEYLIEGGPSSGAPPPS-NH2
modifications: N-terminus assumed
SMILES: CC[C@H](C)[C@H](NC(=O)[C@H](CCCCN)NC(=O)[C@H](CC(=O)O)NC(=O)[C@H](CC(C)C)NC(=O)[C@H](CC(C)C)NC(=O)[C@H](CCCCNC(=O)COCCOCCNC(=O)COCCOCCNC(=O)CC[C@H](NC(=O)CCCCCCCCCCCCCCCCCCC(=O)O)C(=O)O)NC(=O)[C@H](CO)NC(=O)[C@H](Cc1ccc(O)cc1)NC(=O)[C@H](CC(=O)O)NC(=O)[C@H](CO)NC(=O)[C@@H](NC(=O)[C@H](Cc1ccccc1)NC(=O)[C@@H](NC(=O)CNC(=O)[C@H](CCC(=O)O)NC(=O)C(C)(C)NC(=O)[C@@H](N)Cc1ccc(O)cc1)[C@@H](C)O)[C@@H](C)O)C(=O)N[C@@H](C)C(=O)N[C@@H](CCC(N)=O)C(=O)NC(C)(C)C(=O)N[C@@H](C)C(=O)N[C@@H](Cc1ccccc1)C(=O)N[C@H](C(=O)N[C@@H](CCC(=O)O)C(=O)N[C@@H](Cc1ccc(O)cc1)C(=O)N[C@@H](CC(C)C)C(=O)N[C@H](C(=O)N[C@@H](CCC(=O)O)C(=O)NCC(=O)NCC(=O)N1CCC[C@H]1C(=O)N[C@@H](CO)C(=O)N[C@@H](CO)C(=O)NCC(=O)N[C@@H](C)C(=O)N1CCC[C@H]1C(=O)N1CCC[C@H]1C(=O)N1CCC[C@H]1C(=O)N[C@@H](CO)C(N)=O)[C@@H](C)CC)[C@@H](C)CC

Target: human GLP-1 receptor (human, UniProt P43220 24-463)
Assay: cell-based or functional assay

| Binder | hGLPIR cAMP EC50 ratio |
| --- | --- |
| B1 | 1.36 |
| B2 | 0.0671 |
| B3 | 1.03 |
| B4 | 1.15 |
| B5 | 1.96 |
| B6 | 1.65 |
| B7 | 1.29 |
| B8 | 0.694 |
| B9 | 1.74 |
| B10 | 0.813 |
| B11 | 1.55 |
| B12 | 1.07 |
| B13 | 1.28 |
| B14 | 0.795 |
| B15 | 0.962 |
| B16 | 0.771 |
| B17 | 1.06 |
| B18 | 1.14 |
| B19 | 0.599 |
| B20 | 0.987 |
| B21 | 1.31 |
| B22 | 1.02 |
| B23 | 2.56 |
| B24 | 0.535 |
| B25 | 1.89 |
| B26 | 1.22 |
| B27 | 0.238 |
| B28 | 1.03 |
| B29 | 1.1 |
| B30 | 0.197 |

Source: patent US20230293638A1 (Eli Lilly, published 2023)
